Results as given in patent US20260275317A1, “CHIMERIC ENDOLYSINS WITH ACTIVITY AGAINST STREPTOCOCCI AND STAPHYLOCOCCI” (UNIVERSITEIT GENT, priority 2023, published 2026).
Where “and” joins values, the source holds several entries; their conditions need not be identical. Equal values may be shown once.

How the values were obtained:
[1] = system: stationary phase S. uberis; test: Time killing assay (TKA), S. uberis; format: cell-based, Streptococcus uberis; conditions: for ΔLog10 (CFU/mL): 1 h
Procedure: (§1) Concerning the time killing assay, an overnight bacterial culture was diluted 1:10 for S. uberis, S. agalactiae-& dysgalactiae or 1:100 for S. aureus in PBS or UHT-pasteurized whole cow's milk. […] Finally, these fractions were serially diluted 1:10 in PBS. 5 μL of each fraction was spotted on TSA or BHI-agar and incubated overnight at 37° C. The following day, colony forming units (CFU) were counted and converted to CFU/mL to calculate logarithmic reductions in comparison with the negative control. The relative scores were calculated by dividing the observed logarithmic reduction for each endolysin by the maximal reduction observed for that specific condition and strain. Next, this value was divided by the number of conditions and strains tested (i.e., 8=4 bacterial strains×2 conditions (PBS/UHT-milk)). As such, the best performing candidate in each individual assay received a score of 0.125 (=(1/1)/8). […] Turbidity reduction assays were performed by combining 100 μL of overnight grown bacterial cells with an equal volume of purified enzyme at the desired concentration. Bacterial cells were washed with PBS and resuspended in a 1:1 ratio with enzyme to an OD600 of approximately 1.0. Next, the OD600 was measured using a Tecan infinite 200 PRO plate reader (Tecan, Switzerland) every 15 seconds at 37° C., shaking the 96-well plate between each measurement.
(§2) Time killing and turbidity reduction assays were performed as previously described in 1.3.1.
(§3) Time killing assays were performed as previously described in 1.3.1.

S. dysgalactiae = test: Time killing assay (TKA), S. dysgalactiae; format: cell-based, Streptococcus dysgalactiae; conditions: 0.3 μM
Procedure: as §1, §2, §3

[2] = system: intracellular S. uberis GCC ST-5 in MAC-T and PS cells; test: Intracellular killing assay in bovine mammary epithelial cell lines; format: cell-based, Streptococcus uberis; conditions: 2.5 μM, 1 h
Procedure: Cells were seeded in a 24-well plate at 50.000 cells/well with the addition of 25 μg/mL calf skin collagen type I (dissolved in 0.1 M acetic acid) (Sigma-Aldrich, USA) and grown to 100% confluency. Next, medium was removed and cells were washed 3× with dPBS to remove residual P/S. An overnight bacterial culture was washed with dPBS, dissolved in an equal volume of prewarmed cell culture media without the addition of P/S and 0.5 mL thereof was incubated with the cells in every well during 3 h at 37° C. to allow intracellular invasion. Afterwards, this suspension was removed, serially diluted and plated as previously described to determine the amount of extracellular bacteria. Cells were again washed 3× with dPBS and 0.5 mL of prewarmed cell culture media was added with the addition of 200 μg/ml gentamycin (Sigma-Aldrich, USA) and incubated during 3 h at 37° C. to kill remaining extracellular and adhered bacteria. Next, this suspension was likewise removed and plated to check if killing of the extracellular and adhered bacteria was successful. Cells were again 3× washed with dPBS and 2.5 µM of prewarmed NC5 in cell culture media without P/S (buffer exchange performed at 4-8° C. by means of a Pierce™ Protein Concentrator PES 10 kDa MWCO) was added during 1 h to eradicate the intracellular bacteria. […]

[3] = system: S. uberis in mastitic raw cow's milk; test: Challenge of mastitic raw cow's milk; format: cell-based, Streptococcus uberis; conditions: milk of 4 cows, 8 h; 0.5 μM NC5, 50 μg/mL cloxacillin or both
Procedure: Raw cow's milk from S. uberis infected dairy cows was supplied by the milk control center of Flanders (MCC Vlaanderen). Upon arrival, the milk was serially diluted and plated on BHI agar to determine the bacterial load. Only milk with >10^5 […] CFU/mL S. uberis was included as a selection criterium. If needed, the raw milk was incubated during 8 h at 37° C. to artificially increase the initial bacterial load. […] Upon incubation at 37° C., every 2 h, 20 μL was transferred from each well to 180 μL dPBS, serially diluted and plated on BHI agar. Plates were incubated overnight and CFU/mL were calculated the next day. Undiluted, mastitic milk was always pipetted with ClipTip Pipette Tips (Westburg, The Netherlands) due to high viscosity. Mastitis isolates were confirmed as S. uberis by MALDI-TOF MS biotyping.

B1: NC5: chimeric endolysin SEQ ID NO: 17; HIV-1 TAT + PlySs2 CHAP + Ply1081 CW_7 + PlySs9 amidase_3 (protein)
chain: MYGRKKRRQRRRGATTVNEALNNVRAQVGSGVSVGNGECYALASWYERMISPDATVGLGAGVGWVSGAIGDTISAKNIGSSYNWQANGWTVSTSGPFKAGQIVTLGATPGNPYGHVVIVEAVDGDRLTILEQNYGGKRYPVRNYYSAASYRQQVVHYITPPGTVAQSAPNLAGAGIDQLVQETLAGKYGNGEQRKAALGSQYQAVMAVINGKATAPKKTVDQLAQEVIQGKHGNGEDRKKSLGPDYDAVQKRVTEILKGSPSGNIPKTPSDAPKSEVVNSSTEPKTEETGANGKATDTKITKGSGKHLVICGHGQGRTGYDPGAVNAKLGITEAGKVRELSKLMSKYSGQQIDFITEQNVYDYRSITSIGKGYDSITELHFNAFNGSAKGTEVLIQSSLEADKEDMAILSLLSRYFQNRGIKKVDWLYNANQAASRGYTYRLVEIAFIDNEQDMAIFENKKEDIAKGLVSAITGVEVKTIVPSPPSSTVGSSGTPSKSIYLVGDSLRVLPHATHYQTGQKIANWVKGRTYKILQVKNVHQSNSKRAYLLDGIKSWVLEQDVEGTTKGHSKYHHHHHH
With B1 the “ΔLog10 (CFU/mL)” value ([1]; Clinical S. uberis 1 (Unknown ST and GCC), 0.3 μM) was 0.03 Log10 (CFU/mL), the “ΔLog10 (CFU/mL)” value ([1]; Clinical S. uberis 2 (Unknown ST, GCC 5), 0.3 μM) was 4.05±0.07 Log10 (CFU/mL) and 4.05 Log10 (CFU/mL) and the “ΔLog10 (CFU/mL)” value ([1]; Clinical S. uberis 3 (Unknown ST, GCC 5), 0.3 μM) was 1.82 Log10 (CFU/mL). For the same molecule, the “ΔLog10 (CFU/mL)” value ([1]; Clinical S. uberis 4 (ST 815, GCC 143), 0.3 μM) was 0.00 Log10 (CFU/mL), the “ΔLog10 (CFU/mL)” value ([1]; Clinical S. uberis 5 (ST 944, GCC 5), 0.3 μM) was 0.71 Log10 (CFU/mL) and the “Δ log10” value ([1]; S. uberis 0140J, 0.3 μM) was 1.16±0.06 log10. The “ΔLog10 (CFU/mL)” value ([1]; Subclinical S. uberis 1 (ST 808, GCC 143), 0.3 μM) was 3.02±0.37 Log10 (CFU/mL) and 3.02 Log10 (CFU/mL), the “ΔLog10 (CFU/mL)” value ([1]; Subclinical S. uberis 2 (Unknown ST and GCC), 0.3 μM) was 1.13 Log10 (CFU/mL) and the “ΔLog10 (CFU/mL)” value ([1]; Subclinical S. uberis 3 (Unknown ST, GCC 5), 0.3 μM) was 1.24 Log10 (CFU/mL). For the same molecule, the “ΔLog10 (CFU/mL)” value ([1]; Subclinical S. uberis 4 (Unknown ST and GCC), 0.3 μM) was 2.48 Log10 (CFU/mL), the log10 reduction ([1]; mastitis-derived S. uberis GCC ST-5, 0.3 μM, versus PBS) was 1.17±0.06 log10 and the “ΔLog10 (CFU/mL)” value (S. dysgalactiae; S. dysgalactiae 1, 1 h) was 1.77 Log10 (CFU/mL). For the same molecule, the “ΔLog10 (CFU/mL)” value (S. dysgalactiae; S. dysgalactiae 2, 1 h) was 0.15 Log10 (CFU/mL), the “ΔLog10 (CFU/mL)” value (S. dysgalactiae; S. dysgalactiae 3, 1 h) was 1.11 Log10 (CFU/mL) and the log10 reduction (S. dysgalactiae; mastitis-derived S. dysgalactiae, versus PBS) was 1.11±0.17 log10. For the same molecule, the “Δ log10, reductions up to” value (S. dysgalactiae; three clinical S. dysgalactiae isolates) was ≤ 1.77±0.43 log10, the “Δ Log10 reduction of intracellular S. uberis” value ([2]; infected MAC-T) was 1.62±0.05 Log10 and the “Δ Log10 reduction of intracellular S. uberis” value ([2]; infected PS, remaining bacteria at or below detection limit 200 CFU/mL) was “at least 2.12±0.08 Log10”. For the same molecule, the “log10 reduction of S. uberis versus PBS control” value [3] was “caused a log10 reduction in all mastitic milk samples after 8 h”.
